Holding throughout (conditions): 20 nM; 72 h
Data set [1] concerns MCF10A. In words: percent viability (nuclei count relative to siNT); higher = more viable cells. As to the method:
(§1)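 After 72 h, cells were fixed and stained with Hoechst and anti-fibrillarin, and nucleoli per nucleus were counted with CellProfiler. Values are plate-adjusted percent effect for the one-nucleolus and 5+ nucleoli phenotypes, normalised to siNT (0%) and to the positive controls siNOL11 or siKIF11 (100%), as the mean of biological triplicates. Percent viability is the nuclei count relative to siNT.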

In data set [2] the test system is MCF10A. Put plainly: 5+ nucleoli phenotype percent effect (relative to siNT 0% and siKIF11 100%); higher = more cells with five or more nucleoli. As to the method:
as §1

The test system of data set [3] is MCF10A. In words: one-nucleolus phenotype percent effect (relative to siNT 0% and siNOL11 100%); higher = more cells with one nucleolus (ribosome biogenesis inhibition). As to the method:
as §1

In the case of GUGCAAAAGUCAUCACGGUU [hsa-miR-548aw], the percent viability in the data set on MCF10A [1] is 57.6%. For the same sequence, in the data set on MCF10A [2], the “5+ nucleoli phenotype percent effect” value is -29.9%. The “one-nucleolus phenotype percent effect” value in the data set with MCF10A [3] was -0.384%.

For the sequence CGGCUGGAGGUGUGAGGA [hsa-miR-3652], in the data set with MCF10A [1], the percent viability amounted to 24%. Also, in the data set with MCF10A [2], the “5+ nucleoli phenotype percent effect” value was -23.6%. The “one-nucleolus phenotype percent effect” value with MCF10A [3] was 44.8%.

Sequence CAGGGCCCUGGCUUUAGCAGA [hsa-miR-7160-3p] registered a percent viability with MCF10A [1] of 41.3%. In addition, the “5+ nucleoli phenotype percent effect” value with MCF10A [2] is -4.58%. For the same sequence, the “one-nucleolus phenotype percent effect” value with MCF10A [3] worked out at 14.8%.

Turning to UGAGGUAGGAGGUUGUAUAGUU [hsa-let-7e-5p], the percent viability with MCF10A [1] was 23%. The “5+ nucleoli phenotype percent effect” value in the data set with MCF10A [2] was determined as 48.7%. For the same sequence, the “one-nucleolus phenotype percent effect” value with MCF10A [3] is -8.3%.

For GAGAAAUGCUGGACUAAUCUGC [hsa-miR-5680], in the data set with MCF10A [1], the percent viability amounted to 93.7%. Moreover, the “5+ nucleoli phenotype percent effect” value with MCF10A [2] is 27.3%. In addition, in the data set with MCF10A [3], the “one-nucleolus phenotype percent effect” value is -20.6%.

As to UAUAGAGAGCAGGAAGAUUAAUGU [hsa-miR-3976], the percent viability in the data set with MCF10A [1] was determined as 78.3%. Also, the “5+ nucleoli phenotype percent effect” value in the data set with MCF10A [2] is 31.2%. Moreover, the “one-nucleolus phenotype percent effect” value with MCF10A [3] was -15.3%.

AGGAAUGUUCCUUCUUUGCC [hsa-miR-613] showed a percent viability in the data set on MCF10A [1] of 44.4%. Besides, the “5+ nucleoli phenotype percent effect” value in the data set on MCF10A [2] was -37.9%. For the same sequence, in the data set with MCF10A [3], the “one-nucleolus phenotype percent effect” value amounted to 36.5%.

Regarding UGGCGAUUUUGGAACUCAAUGGCA [hsa-miR-8053], the percent viability in the data set with MCF10A [1] stood at 36.7%. The “5+ nucleoli phenotype percent effect” value in the data set with MCF10A [2] was found to be 6.04%. In addition, the “one-nucleolus phenotype percent effect” value in the data set on MCF10A [3] was 4.42%.

Turning to “UGAUUGUCUUCAUAUCUAGAAC [hsa-miR-4782-3p]”, the percent viability with MCF10A [1] was 62%. For the same sequence, the “5+ nucleoli phenotype percent effect” value in the data set with MCF10A [2] was -13.9%. For the same sequence, the “one-nucleolus phenotype percent effect” value in the data set with MCF10A [3] is -0.93%.

AGGGACUGCCUUAGGAGAAAGUU [hsa-miR-3199]: the percent viability in the data set with MCF10A [1] worked out at 57.4%. In addition, the “5+ nucleoli phenotype percent effect” value in the data set with MCF10A [2] amounted to 42.9%. Also, in the data set with MCF10A [3], the “one-nucleolus phenotype percent effect” value was -15.3%.

In turn, “CCACGUGCUUCUCUUUCCGCAG [hsa-miR-6767-3p]” had a percent viability in the data set on MCF10A [1] of 69%. The “5+ nucleoli phenotype percent effect” value with MCF10A [2] is -26%. Further, the “one-nucleolus phenotype percent effect” value in the data set on MCF10A [3] was 13.2%.

The sequence AAUCAGUGAAUGCCUUGAACCU [hsa-miR-5094] showed a percent viability in the data set on MCF10A [1] of 63.5%. In the data set on MCF10A [2], the “5+ nucleoli phenotype percent effect” value was -13.9%. Besides, in the data set with MCF10A [3], the “one-nucleolus phenotype percent effect” value was -15%.

With ACUGGACUUGGAGUCAGAAGG [hsa-miR-378a-3p], the percent viability in the data set on MCF10A [1] is 45.2%. In the data set on MCF10A [2], the “5+ nucleoli phenotype percent effect” value worked out at 22.6%. The “one-nucleolus phenotype percent effect” value with MCF10A [3] turned out to be 2.26%.

Sequence UGACCUCUCCGCUCCGCACAG [hsa-miR-6821-3p] returned a percent viability in the data set with MCF10A [1] of 38.9%. For the same sequence, the “5+ nucleoli phenotype percent effect” value with MCF10A [2] was -22.7%. Besides, the “one-nucleolus phenotype percent effect” value with MCF10A [3] was 7.28%.

Consider “CUGCAGAGUUUGUACGGACCGG [hsa-miR-3678-3p]”, for which the percent viability with MCF10A [1] was 66.6%. Besides, in the data set with MCF10A [2], the “5+ nucleoli phenotype percent effect” value was -37.4%. For the same sequence, in the data set with MCF10A [3], the “one-nucleolus phenotype percent effect” value was 10.8%.

Consider UGAGGUAGUAGGUUGUGUGGUU [hsa-let-7b-5p], for which, in the data set with MCF10A [1], the percent viability stood at 22.8%. In addition, the “5+ nucleoli phenotype percent effect” value with MCF10A [2] came out at 33.9%. Further, the “one-nucleolus phenotype percent effect” value in the data set with MCF10A [3] is -9.82%.

With UAUAUAUACAGCCAUGCACUC [hsa-miR-5011-5p], in the data set with MCF10A [1], the percent viability turned out to be 74.6%. In the data set on MCF10A [2], the “5+ nucleoli phenotype percent effect” value was 39.8%. The “one-nucleolus phenotype percent effect” value with MCF10A [3] is -18.5%.

As to CUGAAGUGAUGUGUAACUGAUCAG [hsa-miR-573], in the data set with MCF10A [1], the percent viability turned out to be 69%. The “5+ nucleoli phenotype percent effect” value in the data set on MCF10A [2] is -8.65%. Moreover, the “one-nucleolus phenotype percent effect” value in the data set with MCF10A [3] is -6.66%.

The sequence “UGAGGAGAUCGUCGAGGUUGG [hsa-miR-3150b-3p]” gave a percent viability with MCF10A [1] of 47.3%. Moreover, the “5+ nucleoli phenotype percent effect” value with MCF10A [2] came to 24.3%. In the data set on MCF10A [3], the “one-nucleolus phenotype percent effect” value is -11.7%.

As for “UAGGCAGUGUCAUUAGCUGAUUG [hsa-miR-34b-5p]”, the percent viability in the data set on MCF10A [1] came to 17.6%. Also, the “5+ nucleoli phenotype percent effect” value with MCF10A [2] is -23.8%. The “one-nucleolus phenotype percent effect” value in the data set with MCF10A [3] worked out at 35.6%.

These data come from the supplement of paper PMC10899765.
